{"source": "IntAct's records for PubMed 16278825", "parents": {"B1": {"name": "Ras-related protein Rab-27A (Homo sapiens), P51159 (parent)", "chain": "MSDGDYDYLIKFLALGDSGVGKTSVLYQYTDGKFNSKFITTVGIDFREKRVVYRASGPDGATGRGQRIHLQLWDTAGQERFRSLTTAFFRDAMGFLLLFDLTNEQSFLNVRNWISQLQMHAYCENPDIVLCGNKSDLEDQRVVKEEEAIALAEKYGIPYFETSAANGTNISQAIEMLLDLIMKRMERCVDKSWIPEGVVRSNGHASTDQLSEEKEKGACGC", "partner": "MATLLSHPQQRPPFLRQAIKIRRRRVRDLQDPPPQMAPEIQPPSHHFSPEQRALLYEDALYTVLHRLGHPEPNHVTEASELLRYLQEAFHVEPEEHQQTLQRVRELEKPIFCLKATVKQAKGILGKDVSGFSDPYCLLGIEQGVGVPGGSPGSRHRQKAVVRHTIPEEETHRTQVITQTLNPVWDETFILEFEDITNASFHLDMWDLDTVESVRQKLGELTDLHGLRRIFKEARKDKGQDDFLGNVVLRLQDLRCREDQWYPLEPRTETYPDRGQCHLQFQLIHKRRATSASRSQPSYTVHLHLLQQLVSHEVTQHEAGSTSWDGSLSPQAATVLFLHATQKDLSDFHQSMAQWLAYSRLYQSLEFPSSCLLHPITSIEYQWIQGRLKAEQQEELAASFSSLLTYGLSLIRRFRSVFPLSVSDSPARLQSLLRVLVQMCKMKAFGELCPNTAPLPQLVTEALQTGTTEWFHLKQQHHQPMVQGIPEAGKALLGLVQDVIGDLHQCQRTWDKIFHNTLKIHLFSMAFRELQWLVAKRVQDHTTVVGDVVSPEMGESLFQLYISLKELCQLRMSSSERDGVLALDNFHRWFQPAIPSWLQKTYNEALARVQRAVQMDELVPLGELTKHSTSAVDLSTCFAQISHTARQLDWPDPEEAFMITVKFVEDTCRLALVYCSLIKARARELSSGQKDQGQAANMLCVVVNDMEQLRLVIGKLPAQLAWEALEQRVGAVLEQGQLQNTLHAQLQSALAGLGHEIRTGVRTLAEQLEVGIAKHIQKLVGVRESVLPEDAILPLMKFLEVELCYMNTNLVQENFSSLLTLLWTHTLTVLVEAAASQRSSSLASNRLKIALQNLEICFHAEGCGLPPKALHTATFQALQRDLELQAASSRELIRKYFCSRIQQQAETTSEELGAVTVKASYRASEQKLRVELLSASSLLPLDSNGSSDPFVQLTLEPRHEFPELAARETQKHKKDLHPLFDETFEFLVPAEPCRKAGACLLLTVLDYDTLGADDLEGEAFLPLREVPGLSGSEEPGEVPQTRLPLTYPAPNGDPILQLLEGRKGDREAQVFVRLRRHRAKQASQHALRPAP"}, "B2": {"name": "Protein unc-13 homolog D (Homo sapiens), Q70J99 (parent)", "chain": "B1 partner"}}, "data": [{"variants_of": "B1", "conditions": "with un13d_human UNC13D", "values": [{"variant": "MSDGDYDYLIKFLALGDSGVGKTSVLYQYTDGKFNSKFITTVGIDFREKRVVYRASGPDGATGRGQRIHLQLWDTAGQERFRSLTTPFFRDAMGFLLLFDLTNEQSFLNVRNWISQLQMHAYCENPDIVLCGNKSDLEDQRVVKEEEAIALAEKYGIPYFETSAANGTNISQAIEMLLDLIMKRMERCVDKSWIPEGVVRSNGHASTDQLSEEKEKGACGC", "note": "[A87P]", "effect of a mutation on the interaction": "disrupting interaction strength"}, {"variant": "MSDGDYDYLIKFLALGDSGVGKTSVLYQYTDGKFNSKFITTVGIDFREKRVVYRASGPDGATGRGQRIHLQLWDTAGLERFRSLTTAFFRDAMGFLLLFDLTNEQSFLNVRNWISQLQMHAYCENPDIVLCGNKSDLEDQRVVKEEEAIALAEKYGIPYFETSAANGTNISQAIEMLLDLIMKRMERCVDKSWIPEGVVRSNGHASTDQLSEEKEKGACGC", "note": "[Q78L]", "effect of a mutation on the interaction": "with no effect"}, {"variant": "MSDGDYDYLIKFLALGDSGVGKNSVLYQYTDGKFNSKFITTVGIDFREKRVVYRASGPDGATGRGQRIHLQLWDTAGQERFRSLTTAFFRDAMGFLLLFDLTNEQSFLNVRNWISQLQMHAYCENPDIVLCGNKSDLEDQRVVKEEEAIALAEKYGIPYFETSAANGTNISQAIEMLLDLIMKRMERCVDKSWIPEGVVRSNGHASTDQLSEEKEKGACGC", "note": "[T23N]", "effect of a mutation on the interaction": "disrupting interaction strength"}]}, {"variants_of": "B2", "conditions": "with rb27a_human RAB27A", "values": [{"variant": "L403P", "effect of a mutation on the interaction": "disrupting interaction strength"}]}]}
